US20170037124A1 (Regeneron, published 2017)

B1: H4H15341P (antibody, human IgG4, V domains shown)
VH: EVQLVESGGGLVQPGGSLRLSCAASGFTFNNHEMNWVRQAPGKGLEWVSYISSSGNTVTYADFLKGRFTISRDNAKNSLFLQMNSLRDEDTAVYYCARDHLSGTSPLSYWGQGTLVTVSS
VL: DIQMTQSPSSLSASVGDRVTITCQASQDINNYLNWFQQKPGKAPKLLIFDASNLETGVPSRFSGSGSGTDFTFTISSLQPEDIATYFCQQYENLPYTFGQGTKLEIK
notes: H4H prefix: human IgG4 Fc
B2: H4H15316P (antibody, human IgG4, V domains shown)
VH: EVQLVESGGGLVQPGRSLRLSCAASGFIFDDYDMHWVRQAPGKGLEWVSGISWNSGSKGYADSVKGRFTISRDNAKNSLYLQMNSLRAEDTALYYCTKGPWDYFDYWGQGTLVTVSS
VL: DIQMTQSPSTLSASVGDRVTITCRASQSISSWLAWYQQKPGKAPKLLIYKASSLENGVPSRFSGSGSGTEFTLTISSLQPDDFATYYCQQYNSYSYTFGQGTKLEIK
notes: H4H prefix: human IgG4 Fc

Legend:
[1] = biological target: T1, human ANGPTL8 peptide (hANGPTL8 peptide, SEQ ID NO: 337) (human); assay: SPR, captured mAb, 500 nM peptide, 25C
T1 construct: also called N-terminal region ANGPTL8 peptide
T1 peptide: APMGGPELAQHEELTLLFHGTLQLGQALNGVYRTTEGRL

[2] = biological target: T2, peptide from the N-terminal coiled-coil region of human ANGPTL3 (hANGPTL3 peptide, SEQ ID NO: 338) (human); assay: SPR, captured mAb, 500 nM peptide, 25C
T2 construct: also called hANGPTL3 shift peptide
T2 peptide: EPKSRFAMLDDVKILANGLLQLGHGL

[3] = biological target: T3, peptide from the N-terminal coiled-coil region of human ANGPTL4 (hANGPTL4 peptide, SEQ ID NO: 339) (human); assay: SPR, captured mAb, 500 nM peptide, 25C
T3 peptide: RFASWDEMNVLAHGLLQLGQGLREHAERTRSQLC

[4] = biological target: T4, anti-mFc (AMC) Octet biosensor, blank; assay: BLI Octet, blank AMC sensor, 100 nM mAb, 25C
T4 construct: Sensor without captured protein, used as blank; also called Blank AMC Sensor
Method in brief: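 Antigen-mFc (human or cynomolgus ANGPTL8; hLDLR-mFc as negative control; one blank sensor) captured to ~1.6 nm from 10 μg/mL over 4 min. Sensors dipped 4 min in 100 nM mAb or isotype control at 25° C. Buffer: 10 mM HEPES pH 7.4, 150 mM NaCl, 0.05% Tween-20, 1 mg/ml BSA, shaken at 1000 rpm.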

[5] = biological target: T5, human ANGPTL8 expressed with C-terminal mouse IgG2a Fc tag (hANGPTL8-mFc; SEQ ID NO: 340) (human); assay: BLI Octet, captured antigen, 100 nM mAb, 25C
T5 construct: also called Angiopoietin-like protein 8
T5 chain: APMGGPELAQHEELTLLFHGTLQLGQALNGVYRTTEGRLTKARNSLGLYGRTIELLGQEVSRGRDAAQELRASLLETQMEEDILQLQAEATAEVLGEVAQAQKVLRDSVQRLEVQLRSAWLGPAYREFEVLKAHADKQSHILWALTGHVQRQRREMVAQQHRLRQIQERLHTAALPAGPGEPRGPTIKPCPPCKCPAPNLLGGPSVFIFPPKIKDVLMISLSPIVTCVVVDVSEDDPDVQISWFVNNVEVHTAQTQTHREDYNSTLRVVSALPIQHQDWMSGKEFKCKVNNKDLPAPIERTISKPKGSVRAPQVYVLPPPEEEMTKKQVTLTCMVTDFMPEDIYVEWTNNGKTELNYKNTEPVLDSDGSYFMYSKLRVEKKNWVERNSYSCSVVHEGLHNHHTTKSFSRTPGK

[6] = biological target: T6, monkey ANGPTL8 expressed with C-terminal mouse IgG2a Fc tag (MfANGPTL8-mFc; SEQ ID NO: 341) (cynomolgus monkey); assay: BLI Octet, captured antigen, 100 nM mAb, 25C
T6 construct: also called cynomolgus monkey ANGPTL8
T6 chain: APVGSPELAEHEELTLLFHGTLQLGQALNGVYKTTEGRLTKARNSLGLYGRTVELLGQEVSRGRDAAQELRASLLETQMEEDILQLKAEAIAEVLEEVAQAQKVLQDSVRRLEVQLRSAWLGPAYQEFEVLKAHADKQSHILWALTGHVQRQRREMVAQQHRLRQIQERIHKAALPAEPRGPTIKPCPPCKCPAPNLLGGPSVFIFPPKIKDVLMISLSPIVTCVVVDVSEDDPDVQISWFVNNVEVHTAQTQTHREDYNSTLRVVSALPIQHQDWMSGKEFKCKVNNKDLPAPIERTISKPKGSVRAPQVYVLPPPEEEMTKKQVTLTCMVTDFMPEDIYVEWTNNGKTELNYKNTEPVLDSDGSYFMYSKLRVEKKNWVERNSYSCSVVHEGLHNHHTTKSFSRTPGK

[7] = biological target: T5, human ANGPTL8 expressed with C-terminal …; assay: SPR MASS-1, antigen-mFc captured, mAb injected, 25C
Experimental: (§1) All binding studies were performed in 10 mM HEPES pH 7.4, 150 mM NaCl, 3 mM EDTA, and 0.05% v/v Surfactant Tween-20 (HBS-ET running buffer) at 25° C. The HCA sensor surface was first derivatized by amine coupling goat anti-mouse IgG2a polyclonal antibody (Southern Biotech, #1080-01) onto which was then captured approximately 30 RU ([…]) of human ANGPTL8 expressed with C-terminal mouse IgG2a Fc tag (hANGPTL8-mFc; SEQ ID NO: 340) or monkey ANGPTL8 expressed with C-terminal mouse IgG2a Fc tag (MfANGPTL8-mFc; SEQ ID NO: 341).
(§2) Kinetic association (kₐ) and dissociation (kd) rate constants were determined by fitting the real-time binding sensorgrams to a 1:1 binding model with mass transport limitation using Scrubber 2.0c curve-fitting software. Binding dissociation equilibrium constants (KD) and dissociative half-lives (t½) were calculated from the kinetic rate constants as: […]

[8] = biological target: T6, monkey ANGPTL8 expressed with …; assay: as above
Experimental: as §1, §2

[9] = biological target: T5, human ANGPTL8 expressed with C-terminal …; assay: SPR MASS-1, antigen-mFc captured, mAb injected, 25C; no dissociation seen, kd fixed at the detection limit
Experimental: as §1, §2
(§3) To obtain an estimate of the binding affinity the dissociation rate constant, kd, was fixed at the upper detection limit under the experimental conditions, 1.0E-05 1/s.

[10] = biological target: T6, monkey ANGPTL8 expressed with …; assay: as above
Experimental: as §1, §2, §3

[11] = biological target: T5, human ANGPTL8 expressed with C-terminal …; assay: BLI Octet, captured antigen, 100 nM mAb, 25C

Binder | 500 nM hANGPTL8 peptide Bound (RU) [1] [RU] | binding result [1] | 500 nM hANGPTL3 peptide Bound (RU) [2] [RU] | binding result [2] | 500 nM hAngPTL4 peptide Bound (RU) [3] [RU] | binding result [3] | mAb Binding Response (nm) [4] [nm] | mAb Binding Response (nm) [5] [nm] | mAb Binding Response (nm) [6] [nm] | Kd [7] [nM] | kon [7] [M⁻¹ s⁻¹] | t½ [7] [h] | Kd [8] [nM] | kon [8] [M⁻¹ s⁻¹] | t½ [8] [h] | koff [9] [s⁻¹] | koff [10] [s⁻¹] | binding result [11]
B1 | 0 | no binding (tested: <9 RU at 500 nM peptide) | 0 | no binding (tested: <9 RU at 500 nM peptide) | 0 | no binding (tested: <9 RU at 500 nM peptide) | 0.03 | 0.12 | 0.1 | ≤ 0.117 | 85000 | ≥ 19.2 | ≤ 0.086 | 116000 | ≥ 19.2 | ≤ 1e-05 | ≤ 1e-05 | 
B2 | 0 | no binding (tested: <9 RU at 500 nM peptide) | 0 | no binding (tested: <9 RU at 500 nM peptide) | 0 | no binding (tested: <9 RU at 500 nM peptide) | 0.02 | 0.03 | 0.02 |  |  |  |  |  |  |  |  | no binding (tested: 100 nM mAb; background 0.03 nm)
